# Reference: article PMC7771068
# Like-named read-outs stand apart in the source and are kept apart here.
# Key:
# Assay in all cases: MST
# [1] = target: T1, A3G-NTD-CTD2 (wild-type NTD fused to soluble CTD2) (Homo sapiens, UniProt Q9HC16 1-384, P200A;L234K;N236A;C243A;P247K;F310K;Q318K;C321A;Q322K;C356A)
# A3G-NTD-R24A-CTD2 = A3G-NTD-R24A-CTD2 (Homo sapiens, UniProt Q9HC16 1-384, R24A;P200A;L234K;N236A;C243A;P247K;F310K;Q318K;C321A;Q322K;C356A)
# [2] = target: T1, A3G-NTD-CTD2 (wild-type NTD fused to …); remark: listed apart in the source
# [3] = target: T1, A3G-NTD-CTD2 (wild-type NTD fused to …); remark: listed apart in the source
# T1 sequence (Q9HC16 whole entry P200A/L234K/N236A/C243A/P247K/F310K/Q318K/C321A/Q322K/C356A, the tested form may be a part): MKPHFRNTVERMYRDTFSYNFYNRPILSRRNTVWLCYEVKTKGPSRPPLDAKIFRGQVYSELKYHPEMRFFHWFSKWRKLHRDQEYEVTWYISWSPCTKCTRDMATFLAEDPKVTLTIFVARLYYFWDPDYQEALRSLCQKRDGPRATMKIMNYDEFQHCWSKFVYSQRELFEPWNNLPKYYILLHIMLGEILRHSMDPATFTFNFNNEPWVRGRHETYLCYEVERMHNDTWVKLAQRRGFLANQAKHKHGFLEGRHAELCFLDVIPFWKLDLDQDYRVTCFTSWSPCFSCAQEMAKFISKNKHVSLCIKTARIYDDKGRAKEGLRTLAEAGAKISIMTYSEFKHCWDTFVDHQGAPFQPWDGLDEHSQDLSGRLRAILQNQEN
# A3G-NTD-R24A-CTD2, sequence (Q9HC16 whole entry R24A/P200A/L234K/N236A/C243A/P247K/F310K/Q318K/C321A/Q322K/C356A, the tested form may be a part): as the sequence (Q9HC16 whole entry P200A/L234K/N236A/C243A/P247K/F310K/Q318K/C321A/Q322K/C356A, the tested form may be a part) above, with R24A counted along it
Binder,Kd [1],Kd (A3G-NTD-R24A-CTD2),Kd [2],Kd [3]
AATCCCAAA (ssDNA) [9-nt CCC],20.5 µM,–,–,–
AATCCCAATTTTTTTT (ssDNA) [16-nt CCC (5'-TCCC-polyT)],–,24.6 ± 2.7 µM,4.9 ± 0.1 µM,6.8 µM
AATTCCAATTTTTTTT (ssDNA) [16-nt CC (5'-TCC-polyT)],–,132 ± 2.6 µM,31.4 ± 3.8 µM,–
